Experimental findings from the nanobody polyreactivity screen of Harvey et al. (2022) are described below.

This series can be described thus: yeast display, Sf9 membrane polyspecificity reagent, FACS + sequencing; frameworks hold sequencing errors. The gist of the method:
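Galactose-induced (36–48 hours) yeast carrying a synthetic nanobody display library were exposed to 10% biotinylated, detergent-solubilized Sf9 membrane reagent at 4 °C for 1 hour. FACS followed streptavidin microbead enrichment, using low and high (top ~1%) gates for expression (anti-HA) and reagent binding (streptavidin). Colony PCR, MiSeq 2 × 250 sequencing and CDR-length filtering followed. Labels for polyreactivity reflect the gate of origin.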
“QFQLVESWVGLVQAGGSLRLSCAASGSTFPYYAIGWYRQAPGKERELVASIRKRGGGTYYADSVKGRFTISRDNAKNTVYLQMNSLKPEDTAVYYCAVRVYQFRFTGYDYWGHGTQVTVSS”: the “polyreactivity (PSR sort gate)” value is given as “high polyreactivity”.
The entry for “QVQLVESGGGLVQAGGSLRLSCAASGRTFPSYAMGWYRQAPGKERELVAAISSRGSRTYYADSVKGRFTISRDNAKNTVYLQMNSLKPEDTAVYYCAAKNLWTRKSRYDYWGQGTQVTVSS” is “high polyreactivity”.
The entry for “QVQLVESGRGLVQAGGSLRLSCAACGRIFYRYTMGSYRQAPGKERELVAAITRGGNTYYADSVKGRFTISRDNANYTVYLQMNSLKPEDTAVYYCAKKAPSDRNNYWGQGTQVTVSS” is “high polyreactivity”.
The same measure for “QVQLVESGGGLVQARGSLRLSCAASGLIFYGNAMGWYRQAPGKERELVAAISRRGGRTYYADSVKGRFTISRDNAKNTVYLQMNSLKPEDTAVYYCAKRYKSIPRYWSKEYDYWGQGTQVTVSS”: “high polyreactivity”; for “QVQLVESGGGLVQAGGSLRLSCAASGSTFRIYVMGWYRQAPGKEREFVAAISRGGGSTYYADSVKGRFTISRDNAKNTVYLQMNSLKPVDTAVYYCAAVTRDYGSRSGLDYWGQGTQVTVSS”: “high polyreactivity”; for “QVQLVESGGGLVQAGGSLRLSCAASGSIFKYYAMGWYRQAPGKERELVAAITGSGGNTYYADSVKGRFTISRDNAKNTVYLQMNSLKPEDTAVYYCAATYWWAYVWAYSHVKSTNDYWGQGTQVTVSS”: “low polyreactivity”.
For “QVQLVESGGGLVQAGGRLRLSCAASGRTFGPNVMGWYRQAPGKERELVAAITSGGTTYYADSVKGRFTISRDNAKNTVYLQMTSLIPADTAVYYCAATFYPYQVHHYYYWGQGTQVTVSS”, the “polyreactivity (PSR sort gate)” value is “low polyreactivity”.
The same measure for “QVQLVESGGGLVQAGGSLSLSCAASGRTFIRNAMGWYRQAPGKERELVAAINSGGITNYADSVKGRFTISRDNAKNTVYLQMNSLKPEDTAVYYCNARQVLFGLYLRAYPFEYWGQGTQVTVSS”: “low polyreactivity”; for “QVQLVESGGGLVQAGGSLRLSCAASGSTFSGNTMGWYRQAPGKERELVADINWSSGSTYYADSVKGRFTISRDNAKNTVYLQMNSLKPEDTAVYYCAAVEPFYDFDYWGQGTQVTVSS”: “low polyreactivity”.
Turning to “QVQLVESGGGLVQAGGILRLSCAASGSNFAPYAMGWYRQSPGKERELVATISASGGTTYYADSVKGRFTISRDTAKNTVYLQMNSLKPEDTAVYYCNADSNWYYLGNYYGLNDYWGQGTQVTVSS”, the “polyreactivity (PSR sort gate)” value is given as “low polyreactivity”.
The same measure for “QVQLVESGGGLVQAGGSLRLSSAASGSTIRVYAMGWYRQAPGKERELVATISWGGGRTYYADSVKGRFTISLDNAKNTVYLQMNSLKQEDTSVYYCAADQRWTTDQPTAGDYWGQGTQVTVSS”: “low polyreactivity”; for “QVQLVESGGGLVQAGGILRLSCAASGSIFPFYAMGWYRQAPGKERELVATISWSGGRTYYADSVKGRFTISRDNANNTVYFQMNSLKPEVTAVYYCAAQSYDYWYDYDYWGQGTQVTVSS”: “high polyreactivity”; for “QVQLVESGAGLVQAGGSLSLSCAASGSIWLYAMGWYRQAPGKEREFVAAITRRGSSTYYADSVKGRFTISRDNAKNPVLLQMNSLKPEDTAVYYCAGVSQYGKWRGDYWGQGTQVTVSS”: “high polyreactivity”.
The same measure for “QVQLVESGGGLVQAGGSLRLSCAASGRIFSRYAMGWYRQAPGKERELVAAITQSGTSTYYADSVKGRFTISRDNAKNTVYLQMNSLKPEDTAVYYCAAAKHSWRPSYYWGGYWGQGTQVTVSS”: “low polyreactivity”; for “QVQLVESCGGLVQAGGSLRLSCAASGSTFTIYAMGWYRQAPGKERELVAVISSSGGSTYYADSVKGRFTISRDNAKNTVYLQMNSLKPEDTAVYYCAADTRYFGGYLTLYYWGQGTQVTVSS”: “low polyreactivity”; for “QVQLQESGGGVQAGGSLRLSCAASGSISAPILMGWYRQAPGKERELVAGIGGGANTYYADSVKGRFTVSRDNAKYTVYLQMNSLKPEDTAVYYCAAGDYYWTNFGYWGQGTQVTASS”: “high polyreactivity”.
The entry for “QVQLVESGGGLVQARGSLRLSCPASGLIFPAYAMGWYRQAPGKERELVATITWRGGSTYYADSVKGRFTISRDNAKNTVYLQMNSLKPEDTAVYYCATRPRYYYFRYDYWGQGTQVTVSS” is “high polyreactivity”; for “QVQLVESGGGLVQAGGSLRLSCAASGLIFYAYAMGWYRQAPGKEREFVAAINNSGGRTYYADSVKGRFTISRDNAKNTVYLQMYSLKPEDTAVYYCAVYSYYRRTYRREMDYWGQGTQVTVSS” it is “high polyreactivity”.
Consider “QVQLVESGGGLVQAGGSLRLSCAASGRIFPTNAMGWYRQAPGKERELVAGISSSGGSTYYADSVKGRFTISRDNAKNTVYLQMNSLKPEDTAVYYCNAVGYQYLRVYYWGQGTQVTVSS”, for which the “polyreactivity (PSR sort gate)” value is recorded as “low polyreactivity”.
In the case of “QVKLVESAGGLVQAGGSHRLSCAASARIFRGNTRGWYRQAPGKEREVVARITWNGGTTNYADSVKGRFTISRDYAKNTVSLQMNSLKPVDTAVYYCAKGSLRQITGILSWYYYWRQGTQVTVSS”, the “polyreactivity (PSR sort gate)” value is listed as “high polyreactivity”.
The entry for “QVQLVESGGGLVQAGGSLRLSCAASGRTFNGYAMGWYRQAPGKEREFVAAITSRGGSTYYADSVKGRFTISRDNAKNTVYLQMNSLKPEDTAVYYCAARAYTALSWRRYGYWGQGTQVTVSS” is “high polyreactivity”; for “QVQLVESGGVLVQAGGSLRLSCAASGLIFATYAMGWSRQAPGKERELVAAISSNGDRTYYADSVKGGFTISRDNAKNTVYLQMNCLKPEDTAVYYCARLYLVQSRYPEMDFWGQGTQVTVSS” it is “high polyreactivity”; for “QVQLVESGGGLVQAGGTLRLSCAASGRIFGVYAMGWSRQAPGKERELVAAIRWSGGSTYYADSVKGRFTISRDNAKTTVYLQMNSLKPEDTAVYYCAAVGGVTRGNQYVRYGYWGQGTQVTVSS” it is “high polyreactivity”.
The entry for “QVQLVESGGGLVQAGGSLRLSCAATGSNFGSNAMGWYRQAPGKEMELVAAITESGGDTYYADSVKGRFTISRDNAKNTVYLQMNSLKPEDSAVFYCAARYFGGIVDVSLFREYGSWGQGTQVTVSS” is “low polyreactivity”; for “QVQLVESGGGLVQAGGSLRLSCAASGTTLVIYAMGWYRQAPGKERELVAAINFSDGSTSYADSVKGRFTKSRDNAKNTVYLQMISLKPEDTAVYYWGQGTQVTVSS” it is “low polyreactivity”; for “QVQLVESGGGLVQAGGSLRLSCAASGFTFGTYAMGWYRQAPGKERELVAAISARGGSTYYADSVKGRFTISRDNAKNTVYLQMNSLKPEDTAVYYCAAYYGRHVTPPTGYDYWGQGTQVTVSS” it is “high polyreactivity”.
With “QVQLVESGGGLVQAGGSLSLSCAASGSIIARYAMGWYRQAPGKERELVAAITWSATSTYYADSVKGRFTISRDNAKNTVYLQMTSLKPEDTAVYYCNAGASYFLVISQSRRDYWGQGTQVTVSS”, the “polyreactivity (PSR sort gate)” value is reported as “low polyreactivity”.
The entry for “QVQLVESGGGLVQAGGSLRLSCAASGSTFVIYTMGWYRQAPVKERELVAAISWSGGITRYADSVKGRFTISRDNAKNTVYLQMNSLKPEDTAVYYCNASQWPSRFDYWGQGTQVTVSS” is “low polyreactivity”.
The entry for “QVQLVESGGGLVQAGGSLRLSCAASGSTFYFYAMGWYRQAPGKERELVAAITYSGDRTRYADSVKGRFTISRDNAKNTVYLQMNSLKPEDTAVYYCAARYVGARNAYRMGYWGQGTQVTVSS” is “high polyreactivity”; for “QVQLVESGGGLVQAGGSLRLSCAASGSTFVTNAMGWYRQAPGKEREFVAAISNSSGSTYYADSVKGRFTISRDNAKNTVYLQMNSLKPEDTAVYYCIATPDDWLQEDYWGQGTQVTVSS” it is “low polyreactivity”.
In the case of “QDQLVESWGGLVQAGCSLRLTCAASGSTFWWYAMGWNRQAPGKQREFDAPINWSGSRTYYADSVKGRFTISRDNAKNTVYLQINSLNPEDTAVYYCAAVGRWGVTGSHHDAYDYWGQGTQVTVSS”, the “polyreactivity (PSR sort gate)” value is reported as “high polyreactivity”.
The same measure for “QVQLEESGGGLVQAGGSLRLSCAASGFTIRLYARGWYRQAPGKVRELVAAITSGGSTYADSVKGRFTISRDNAKNTVYLQMNSLKPEDTAVNYCAAVSRYWAKYEYWGQGTQVTVSS”: “high polyreactivity”.
The same measure for “QVQLGESGGGLVQAGGSLRLSCAASGSIFWLYAMGWYRQAPGKERELVAAIDSGDSRKYADSVKGRFTISRDNAKNTVYLQMNSLTPEDTAVYYCNASRRYHVRAPYDYWGQGTLVTVSS”: “low polyreactivity”.
The same measure for “QVQLVESGGGLVQAGGSLRLSCAASGRTFYYYAMGWNRQAPGKEREFVASITWRGGRTYYADSVKGRFTISRDYAKNTVYLQMNSLKPEDTAVYYCAADGSYAIGGYGYWGQGTQVTVSS”: “high polyreactivity”.
As for “QVQIVESGGGLVQAGGSLRLSCAASGSIFYRYAMGWYRQAPGKEREFVAAIDYSGSITRYADSVKGRFTISRDNAKNTVYLQMNSLKPEDTAVYYCAARSYAKDWGGYNYWGQGTQVTVSS”, the “polyreactivity (PSR sort gate)” value was “high polyreactivity”.
The same measure for “QVQLVESGRGLVQAAGSLRLSCASSGSTYFGNTMVWYRQAPGKERELVATITRRGGTTYYADSVKGRFTISRDNAKNSVFLQMNSLKPEDTAVYYCAKRGPYTKYDYWGQGTQVTVSS”: “low polyreactivity”; for “QVQLVESGGGLVQAGGSLRLICAASGFIFPDYTMGWYRHAPGKERELVAAINVSGGSTYYADSVKGRFTISRDHAKNTVYLQMNSLKPEDTAVYYCAAVGGRFVRRSTMDYWGQGTQVTVSS”: “low polyreactivity”.
The same measure for “QVQLVDSGGGLVQAGGSLRLSCAASGRIFGYNAMGWSRQAPGKERELVAAISSGGGTNYADSVKGRFTISRDNAKNTVYLQMNSLKPEDTAVYYCAVRRRRYHTYYRGYDYWGQGTQVTVSS”: “low polyreactivity”; for “QVQLVESGGGLVQAGGSLRLSCAASGITFQRYAMGWYRQAPGKERELVAAITRGGSTNYADSVKGRFTISRDNAKNTVYLQMNSLKPEDTAVYYCAAGYKITSVYGFYYWGQGTQVTVSS”: “high polyreactivity”; for “QVQLVESGGGLVQAGGSLRLICSASGRTFLYNSMGWYRQAPGKERELVAAIRWSGGTTYYADSVKGRFTISRDNAKYNVYLQMNSLKPEDTAVYYCAARWGPYYGGVRYGYWGQGTQVTVSS”: “high polyreactivity”.
The entry for “QVQLVESGGGLVQAGGSLRLSCAASGSTFWYYALGWYRQAPGKERELVAAIRWSDGSTYYADSVKGRFTSSRDNAKNTVYLQMNSLKPEDTAVYYCEYYYWGQGTQVTVSS” is “low polyreactivity”.
